{"source": "paper PMC2792886", "origin": "cited, not measured here", "target": "holoBirA (Escherichia coli) (UniProt P06709)"}
{"substance": "holoBirA (from UniProt P06709)", "values": [{"measurement": "Kd", "value": 10, "unit": "µM"}]}
